According to US20230151104A1 (REMD BIOTHERAPEUTICS, published 2023):
Substitutions are numbered along the chain they refer to. Where “and” joins values, the source holds several entries; their conditions need not be identical. Identical values can stand only once.

B1: murine mAb 132F3F3H11 ("A8") (antibody, V domains shown)
VH: DVQLVESGGGLVQPGGSRKLSCAASGFTFSSSGMHWVRQAPEKGLEWVAYISSGSSSIYYADTVKGRFTISRDNPKNTLFLQMTSLRSEDTAMYYCARPYYYGSIAMDYWGQGTSVTVSS
VL: DIKMTQSPSSMYASLGERVTITCKASQDINSYLSWFQQKPGKSPKTLIYRANRLVDGVPSRFSGSGSGQDYSLTISSLEYEDMGIYYCLQYDEFPFTFGSGTKLEIK
B2: murine mAb 201D10A12C1 ("A15") (antibody, V domains shown)
VH: EVQLQQSGPVLVRPGASVKMSCKASGYAFTDFHLNWVKQSHGKSLEWIGVINPYNGGTNYNQKFKDKATLTVDKSSSTAYMELNRLTSEDSAVYYCARYYASRYGYAMDYWGQGTSVTVSS
VL: DIVMTQAAPSVPVTPGESVSISCRSSKSLLHSNGNTYLYWFLQRPGQSPQLLIYRMSNLASGVPDRFSGSGSGTAFTLRISRVEAEDVGIYYCMQHVEYPLTFGAGTKLELK
B3: murine mAb 201D10E9F2 ("A17") (antibody, V domains shown)
VH: B2 VH
VL: B2 VL
B4: murine-human chimeric IgG1 derived from mAb 201D10A12C1 (A15) (antibody, V domains shown)
VH: B2 VH
VL: DIVMTQAAPSVPVTPGESVSISCRSSKSLLHSNGNTYLYWFLQRPGQSPQLLIYRMSNLASGVPDRFSGSGSGTAFTLRISRVEAEDVGIYYCMQHVEYPLTFGAGTKLELKR
notes: also called Chimeric (VH/VL); 4 Chimeric (VH/VL)
B5: humanized IgG 2 (VH1/VL2) (antibody)
heavy: not shown
light: DIVMTQSPLSLPVTPGEPVSISCRSSKSLLHSNGNTYLYWFLQKPGQSPQLLIYRMSNLASGVPDRFSGSGSGTDFTLKISRVEAEDVGVYYCMQHVEYPLTFGGGTKLEIKRTVAAPSVFIFPPSDEQLKSGTASVVCLLNNFYPREAKVQWKVDNALQSGNSQESVTEQDSKDSTYSLSSTLTLSKADYEKHKVYACEVTHQGLSSPVTKSFNRGEC
notes: Full-length humanized IgG; also called H1/L2
B6: humanized IgG 1 (VH1/VL1) (antibody, V domains shown)
VH: QVQLVQSGAEVKKPGASVKVSCKASGYAFTDFHLNWVRQAPGQGLEWMGVINPYNGGTNYNQKFKDRVTMTRDTSISTAYMELSRLRSDDTAVYYCARYYASRYGYAMDYWGQGTLVTVSS
VL: DIVMTQSPLSLPVTPGEPASISCRSSKSLLHSNGNTYLYWYLQKPGQSPQLLIYRMSNLASGVPDRFSGSGSGTDFTLKISRVEAEDVGVYYCMQHVEYPLTFGGGTKLEIKR
notes: Full-length humanized IgG; also called H1/L1
B7: humanized IgG 3 (VH1/VL3) (antibody)
heavy: not shown
light: B5 light with P8A
notes: Full-length humanized IgG; also called H1/L3
B8: humanized antibody VH4/VL2 (antibody, V domains shown)
VH: B6 VH with V20M, A40S, P41H, M48I, M70L, R72V
VL: DIVMTQSPLSLPVTPGEPVSISCRSSKSLLHSNGNTYLYWFLQKPGQSPQLLIYRMSNLASGVPDRFSGSGSGTDFTLKISRVEAEDVGVYYCMQHVEYPLTFGGGTKLEIK
notes: Expressed as full-length IgG in Expi293F cells and tested as supernatant
B9: humanized antibody VH5/VL1 (antibody, V domains shown)
VH: B6 VH with V20M, R38K, A40S, P41H, M48I, M70L, R72V
VL: B8 VL with V19A, F41Y
notes: as for B8
B10: humanized antibody VH5/VL3 (antibody, V domains shown)
VH: B6 VH with V20M, R38K, A40S, P41H, M48I, M70L, R72V
VL: B8 VL with P8A
notes: as for B8
B11: humanized antibody VH6/VL2 (antibody, V domains shown)
VH: B6 VH with V20M, R38K, A40S, P41H, M48I, V68A, M70L, R72V, T91S
VL: B8 VL
notes: as for B8
B12: humanized antibody VH2/VL3 (antibody, V domains shown)
VH: B6 VH with A40S, M48I, M70L, R72V
VL: B8 VL with P8A
notes: as for B8
B13: humanized antibody VH4/VL3 (antibody, V domains shown)
VH: B6 VH with V20M, A40S, P41H, M48I, M70L, R72V
VL: B8 VL with P8A
notes: as for B8
B14: humanized antibody VH3/VL3 (antibody, V domains shown)
VH: B6 VH with A40S, P41H, M48I, M70L, R72V
VL: B8 VL with P8A
notes: as for B8
B15: humanized antibody VH3/VL2 (antibody, V domains shown)
VH: B6 VH with A40S, P41H, M48I, M70L, R72V
VL: B8 VL
notes: as for B8
B16: humanized antibody VH6/VL1 (antibody, V domains shown)
VH: B6 VH with V20M, R38K, A40S, P41H, M48I, V68A, M70L, R72V, T91S
VL: B8 VL with V19A, F41Y
notes: as for B8
B17: humanized antibody VH5/VL2 (antibody, V domains shown)
VH: B6 VH with V20M, R38K, A40S, P41H, M48I, M70L, R72V
VL: B8 VL
notes: as for B8
B18: humanized antibody VH2/VL2 (antibody, V domains shown)
VH: B6 VH with A40S, M48I, M70L, R72V
VL: B8 VL
notes: as for B8
B19: humanized antibody VH4/VL1 (antibody, V domains shown)
VH: B6 VH with V20M, A40S, P41H, M48I, M70L, R72V
VL: B8 VL with V19A, F41Y
notes: as for B8
B20: humanized antibody VH6/VL3 (antibody, V domains shown)
VH: B6 VH with V20M, R38K, A40S, P41H, M48I, V68A, M70L, R72V, T91S
VL: B8 VL with P8A
notes: as for B8
B21: humanized antibody VH2/VL1 (antibody, V domains shown)
VH: B6 VH with A40S, M48I, M70L, R72V
VL: B8 VL with V19A, F41Y
notes: as for B8
B22: humanized antibody VH3/VL1 (antibody, V domains shown)
VH: B6 VH with A40S, P41H, M48I, M70L, R72V
VL: B8 VL with V19A, F41Y
notes: as for B8

Target: tagged CXCR4 receptors stably expressed on recombinant CHO cells (human, UniProt P61072 1-352 (Pan troglodytes entry))
Experiment: cell-based or functional assay

Chain of tagged CXCR4 receptors stably expressed on recombinant CHO cells (P61072 other isoform, or with tags, fused parts or gaps): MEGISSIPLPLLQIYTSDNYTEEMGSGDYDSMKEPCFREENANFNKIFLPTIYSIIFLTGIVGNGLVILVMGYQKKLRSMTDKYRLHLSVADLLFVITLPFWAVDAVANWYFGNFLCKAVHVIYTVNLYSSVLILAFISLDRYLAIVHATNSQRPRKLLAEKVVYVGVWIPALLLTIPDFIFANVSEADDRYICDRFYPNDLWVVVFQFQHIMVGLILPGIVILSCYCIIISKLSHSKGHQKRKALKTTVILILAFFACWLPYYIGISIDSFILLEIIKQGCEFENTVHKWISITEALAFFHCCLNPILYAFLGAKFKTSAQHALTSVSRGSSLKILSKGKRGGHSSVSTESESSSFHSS

| HuCXCR4 Binding IC50 (nM) (CXCR4 cAMP functional assay, antagonist mode against 5.0 nM SDF-1) | Binder |
| --- | --- |
| 0.381 | B1 |
| 1.18 | B2 |
| 1.48 | B3 |

Target: T1, human CXCR4 (hCXCR4), on CXCR4-positive cell line "CXCR4 E4" (human, UniProt P61073-2 2-356)
T1 construct: FACS target: 'Positive cells lines (CXCR4 E4)'; also called chemokine receptor 4; HuCXCR4
Experiment: FACS binding confirmation with purified IgG on CXCR4-expressing cells

T1 sequence (P61073 other isoform, or with tags, fused parts or gaps): as the sequence (P61072 other isoform, or with tags, fused parts or gaps) above

| EC50 [µg/mL] | Binder |
| --- | --- |
| 1.8 | B4 |
| 1.72 | B5 |
| 1.6 | B6 |
| 2.35 | B7 |

Target: T1, human CXCR4 (hCXCR4), on CXCR4-positive …
Experiment: FACS on CXCR4 E4 cells; serial dilution of Expi293F supernatant; anti-human IgG Alexa Fluor 647
Method: The DNA sequences encoding the chimeric antibody and humanized IgG heavy and light chains were synthesized and inserted into pCDNA3.4 vector to construct the expression plasmids of full-length IgGs. 18 humanized Abs were expressed in Expi293F cell culture, and then the cells were spun down. For affinity ranking, the supernatants were assayed by FACS against cell lines for the assessment of binding activity. Positive cells lines (CXCR4 E4) were cultured following the protocol and harvested by centrifugation. About 1×10⁵cells per well were washed with 1*PBS and incubated in a serial dilution of antibodies for 30 minutes at 4° C. After washing with PBS, secondary antibody [1 μg/ml Alexa Fluor® 647 AffiniPure Goat Anti-Human IgG (H+L)] was added to the cells and incubated in PBS for 30 minutes at 4° C. After washing with PBS, cells were analyzed for binding by using FACS Calibur (BD Bioscience, San Jose, Calif.) and Flowjo software. The antibodies were ranked by EC50.

| EC50 | Binder |
| --- | --- |
| 1.99 µg/mL and 13.2 nM | B8 |
| 0.375 µg/mL and 2.5 nM | B9 |
| 1.93 µg/mL and 12.8 nM | B10 |
| 1.94 µg/mL and 13 nM | B11 |
| 8.35 µg/mL and 55.7 nM | B12 |
| 1.97 µg/mL and 13.2 nM | B13 |
| 2.82 µg/mL and 18.8 nM | B14 |
| 2.93 µg/mL and 19.5 nM | B15 |
| 1.45 µg/mL and 9.65 nM | B16 |
| 1.61 µg/mL and 10.7 nM | B17 |
| 4.82 µg/mL and 32.1 nM | B18 |
| 2.39 µg/mL and 16 nM | B19 |
| 2.86 µg/mL and 19.1 nM | B20 |
| 5.37 µg/mL and 35.8 nM | B21 |
| 4.18 µg/mL and 27.9 nM | B22 |
| 1.56 µg/mL and 10.4 nM | B4 |
| 2.19 µg/mL and 14.6 nM | B5 |
| 1.72 µg/mL and 11.5 nM | B6 |
| 2.27 µg/mL and 15.2 nM | B7 |
